Data taken from US20030044814.
Where a chain is given by its changes, count along the chain named.

B1: PRC17 (wild type) (protein)
chain: MDVVEVAGSWWAQEREDIIMKYEKGHRAGLPEDKGPKPFRSYNNNVDHLGIVHETELPPLTAREAKQIRREISRKSKWVDMLGDWEKYKSSRKLIDRAYKGMPMNIRGPMWSVLLNIEEMKLKNPGRYQIMKEKGKRSSEHIQRIDRDVSGTLRKHIFFRDRYGTKQRELLHILLAYEEYNPEVGYCRDLSHIAALFLLYLPEEDAFWALVQLLASERHSLQGFHSPNGGTVQGLQDQQEHVVATSQPKTMGHQDKKDLCGQCSPLGCLIRILIDGISLGLTLRLWDVYLVEGEQALMPITRIAFKVQQKRLTKTSRCGPWARFCNRFVDTWARDEDTVLKHLRASMKKLTRKQGDLPPPAKPEQGSSASRPVPASRGGKTLCKGDRQAPPGPPARFPRPIWSASPPRAPRSSTPCPGGAVREDTYPVGTQGVPSPALAQGGPQGSWRFLQWNSMPRLPTDLDVEGPWFRHYDFRQSCWVRAISQEDQLAPCWQAEHPAERVRSAFAAPSTDSDQGTPFRARDEQPCAPTSGPCLCGLHLESSQFPPGF
B2: mutant form PRC17 (Arg107 and Asp148 substituted by alanines) (protein)
chain: B1 chain with R107A, D148A

Molecular target: Rab5 (recombinant, purified from E. coli)

Row | Protein | GTP hydrolysis assay (percentage of non-hydrolysed [gamma-32P]GTP remaining bound to filters)
1 | B1 | Addition of wild type PRC17 resulted in a 30% reduction of GTP-bound Rab5
2 | B2 | addition of the mutant form PRC17 had no effect on Rab5 GTP-hydrolysis
